# Source: US20180155413A1 (AstraZeneca / MedImmune, published 2018)
# Where two headings read alike, the source gives them in different places.
# How the values were obtained:
# Assay in all cases: cell-based or functional assay
# [1] = molecular target: HA of A/Victoria/3/75 (H3N2) (influenza A virus)
# [2] = molecular target: HA of A/Berlin/93/2011 (H3N2) (influenza A virus)
# [3] = molecular target: HA of A/Solomon Island/3/2006 (H1N1) (influenza A virus)
# [4] = molecular target: HA of A/Bolivia/559/2013 (H1N1) (influenza A virus)
# [5] = molecular target: HA of ca A/mallard/Alberta/89/85 (H6N2) (influenza A virus)
# [6] = molecular target: HA of ca A/Japan/57 (H2N2) (influenza A virus)
# [7] = molecular target: HA of A/Wilson Smith N/33 (H1N1) (influenza A virus, UniProt P03454 18-565)
# Sequence of HA of A/Wilson Smith N/33 (H1N1) (P03454 18-565 limits assumed): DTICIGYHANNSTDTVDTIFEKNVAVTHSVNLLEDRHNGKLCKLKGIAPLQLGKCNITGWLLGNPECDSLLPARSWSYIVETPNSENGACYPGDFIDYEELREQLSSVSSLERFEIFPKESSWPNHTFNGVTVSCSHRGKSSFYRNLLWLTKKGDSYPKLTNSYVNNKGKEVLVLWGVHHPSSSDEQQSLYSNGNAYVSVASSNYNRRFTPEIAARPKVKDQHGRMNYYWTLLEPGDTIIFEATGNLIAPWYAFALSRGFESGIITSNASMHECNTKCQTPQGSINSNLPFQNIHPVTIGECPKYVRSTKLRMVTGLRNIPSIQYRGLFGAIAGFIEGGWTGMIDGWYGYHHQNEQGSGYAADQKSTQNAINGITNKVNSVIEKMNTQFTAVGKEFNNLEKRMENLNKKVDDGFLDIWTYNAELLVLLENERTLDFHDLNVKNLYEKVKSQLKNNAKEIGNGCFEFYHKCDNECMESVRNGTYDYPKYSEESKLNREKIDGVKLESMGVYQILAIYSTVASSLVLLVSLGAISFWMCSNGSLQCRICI
# [8] = molecular target: HA of ca A/Perth/16/2009 (H3N2) (influenza A virus)
# [9] = molecular target: HA of ca A/South Dakota/6/2007 (H1N1) (influenza A virus)
# [10] = molecular target: HA of A/Hong Kong/8/68 (H3N2) (influenza A virus)
# [11] = molecular target: HA of A/Switzerland/9715293/2013 (H3N2) (influenza A virus)
# [12] = molecular target: HA of A/New Hampshire/04/2010 (H1N1) (influenza A virus)
# [13] = molecular target: HA of A/California/07/2009 (H1N1) (influenza A virus)
# [14] = molecular target: HA of A/Puerto Rico/8/34 (H1N1) (influenza A virus, UniProt P03452 18-565)
# Sequence of HA of A/Puerto Rico/8/34 (H1N1) (P03452 18-565 limits assumed): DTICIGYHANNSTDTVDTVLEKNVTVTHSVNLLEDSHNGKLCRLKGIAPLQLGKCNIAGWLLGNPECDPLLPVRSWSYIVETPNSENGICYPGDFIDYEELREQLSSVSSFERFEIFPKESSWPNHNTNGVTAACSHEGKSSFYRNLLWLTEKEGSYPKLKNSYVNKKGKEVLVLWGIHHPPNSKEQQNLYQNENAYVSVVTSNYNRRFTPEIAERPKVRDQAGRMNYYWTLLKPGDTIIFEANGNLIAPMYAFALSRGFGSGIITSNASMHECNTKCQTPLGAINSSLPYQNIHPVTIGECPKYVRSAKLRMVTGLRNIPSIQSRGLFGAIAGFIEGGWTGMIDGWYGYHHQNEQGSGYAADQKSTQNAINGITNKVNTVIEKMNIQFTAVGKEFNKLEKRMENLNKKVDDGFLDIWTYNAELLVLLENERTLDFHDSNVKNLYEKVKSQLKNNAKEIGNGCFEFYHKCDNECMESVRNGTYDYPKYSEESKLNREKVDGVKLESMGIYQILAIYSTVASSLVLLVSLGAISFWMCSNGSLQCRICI
# [15] = molecular target: HA of A/AmericanSomoa/4786/2013 (H3N2) (influenza A virus)
# [16] = molecular target: HA of A/California/7/2004 (H3N2) (influenza A virus)
# [17] = molecular target: HA of A/Victoria/361/2011 (H3N2) (influenza A virus)
# [18] = molecular target: HA of ca A/New Caledonia/20/99 (H1N1) (influenza A virus)
# [19] = molecular target: HA of A/Wisconsin/67/2005 (H3N2) (influenza A virus)
# [20] = molecular target: HA of ca A/Brit. Columbia/CN-6/04 (H7N3-LP) (influenza A virus)
# [21] = molecular target: HA of A/Brisbane/10/2010 (H1N1) (influenza A virus)
# [22] = molecular target: HA of A/Shenzhen/227/95 (H1N1) (influenza A virus)
# [23] = molecular target: HA of A/New Caledonia/71/2014 (H3N2) (influenza A virus)
# [24] = molecular target: HA of ca A/Wuhan/359/95 (H3N2) (influenza A virus)
# [25] = molecular target: HA of A/Minnesota/11/2010 (H3N2v) (influenza A virus)
# [26] = molecular target: HA of A/Washington/24/2012 (H1N1) (influenza A virus)
# [27] = molecular target: HA of A/Beijing/262/95 (H1N1) (influenza A virus)
# [28] = molecular target: HA of A/Shan dong/9/93 (H3N2) (influenza A virus)
# [29] = molecular target: HA of A/Fort Monmouth/1/47 (H1N1) (influenza A virus)
# [30] = molecular target: HA of ca A/Sydney/5/97 (H3N2) (influenza A virus)
# [31] = molecular target: HA of ca A/Panama/2007/99 (H3N2) (influenza A virus)
# [32] = molecular target: HA of A/Texas/50/2012 (H3N2) (influenza A virus)
# [33] = molecular target: HA of A/Palau/6759/2014 (H3N2) (influenza A virus)
# [34] = molecular target: HA of A/Victoria/3/75 (H3N2) (influenza A virus); remark: listed apart in the source
# [35] = molecular target: HA of B/Ohio/1/2005 (victoria) (influenza B virus)
# [36] = molecular target: HA of A/Hong Kong/8/68 (H3N2) (influenza A virus); remark: listed apart in the source
# [37] = molecular target: HA of B/Yamanashi/166/98 (yamagata) (influenza B virus)
# [38] = molecular target: HA of B/Sichuan/379/99 (yamagata) (influenza B virus)
# [39] = molecular target: HA of B/Malaysia/2506/2004 (victoria) (influenza B virus)
# [40] = molecular target: HA of A/Shan dong/9/93 (H3N2) (influenza A virus); remark: listed apart in the source
# [41] = molecular target: HA of ca A/Panama/2007/99 (H3N2) (influenza A virus); remark: listed apart in the source
binder,measurement,setting,value
GL20/39 BiS4 100/44 (bispecific antibody) light: DIQMTQSPSSLSASVGDRVTITCRTSQSLSSYTHWYQQKPGKAPKLLIYAASSRGSGVPSRFSGSGSGTDFTLTISSLQPEDFATYYCQQSRTFGQGTKVEIKRTVAAPSVFIFPPSDEQLKSGTASVVCLLNNFYPREAKVQWKVDNALQSGNSQESVTEQDSKDSTYSLSSTLTLSKADYEKHKVYACEVTHQGLSSPVTKSFNRGEC heavy: not shown,Neutralization (IC50),[1],5.2 nM
same,Neutralization (IC50),[2],1.1 nM
same,Neutralization (IC50),[3],4.4 nM
same,Neutralization (IC50),[4],0.9 nM
same,Neutralization (IC50),[5],6.5 nM
same,Neutralization (IC50),[6],5.3 nM
same,Neutralization (IC50),[7],9.5 nM
same,Neutralization (IC50),[8],4 nM
same,Neutralization (IC50),[9],6.8 nM
same,Neutralization (IC50),[10],3.3 nM
same,Neutralization (IC50),[11],0.9 nM
same,Neutralization (IC50),[12],0.4 nM
same,Neutralization (IC50),[13],10.9 nM
same,Neutralization (IC50),[14],18.6 nM
same,Neutralization (IC50),[15],0.8 nM
same,Neutralization (IC50),[16],10.5 nM
same,Neutralization (IC50),[17],5.2 nM
same,Neutralization (IC50),[18],6.2 nM
same,Neutralization (IC50),[19],10.3 nM
same,Neutralization (IC50),[20],18.3 nM
same,Neutralization (IC50),[21],9.8 nM
same,Neutralization (IC50),[22],7.9 nM
same,Neutralization (IC50),[23],0.8 nM
same,Neutralization (IC50),[24],16.7 nM
same,Neutralization (IC50),[25],17.1 nM
same,Neutralization (IC50),[26],2.1 nM
same,Neutralization (IC50),[27],10.6 nM
same,Neutralization (IC50),[28],18.3 nM
same,Neutralization (IC50),[29],5.2 nM
same,Neutralization (IC50),[30],22.6 nM
same,Neutralization (IC50),[31],28.5 nM
same,Neutralization (IC50),[32],3.1 nM
same,Neutralization (IC50),[33],4.6 nM
same,Neutralization (IC50),[34],15.9 nM
same,Neutralization (IC50),[35],16.5 nM
same,Neutralization (IC50),[36],6 nM
same,Neutralization (IC50),[37],1.2 nM
same,Neutralization (IC50),[38],7.8 nM
same,Neutralization (IC50),[39],25.8 nM
same,Neutralization (IC50),[40],30.3 nM
same,Neutralization (IC50),[41],37.3 nM
"GL20 IgG (antibody, V domains shown) VH: QVQLQQSGPGLVKPSQTLSLTCAISGDSVSSYNAVWNWIRQSPSRGLEWLGRTYYRSGWYNDYAESVKSRITINPDTSKNQFSLQLNSVTPEDTAVYYCARSGHITVFGVNVDAFDMWGQGTMVTVSS VL: DIQMTQSPSSLSASVGDRVTITCRTSQSLSSYTHWYQQKPGKAPKLLIYAASSRGSGVPSRFSGSGSGTDFTLTISSLQPEDFATYYCQQSRTFGQGTKVEIK",Neutralization (IC50),[1],3 nM
same,Neutralization (IC50),[2],1.1 nM
same,Neutralization (IC50),[3],4.3 nM
same,Neutralization (IC50),[4],0.9 nM
same,Neutralization (IC50),[5],4.8 nM
same,Neutralization (IC50),[6],5 nM
same,Neutralization (IC50),[7],7.6 nM
same,Neutralization (IC50),[8],4.2 nM
same,Neutralization (IC50),[9],10.8 nM
same,Neutralization (IC50),[10],3 nM
same,Neutralization (IC50),[11],0.3 nM
same,Neutralization (IC50),[12],0.4 nM
same,Neutralization (IC50),[13],10.2 nM
same,Neutralization (IC50),[14],10 nM
same,Neutralization (IC50),[15],0.9 nM
same,Neutralization (IC50),[16],14.2 nM
same,Neutralization (IC50),[17],5.7 nM
same,Neutralization (IC50),[18],4.2 nM
same,Neutralization (IC50),[19],10.7 nM
same,Neutralization (IC50),[20],7.4 nM
same,Neutralization (IC50),[21],10.5 nM
same,Neutralization (IC50),[22],9.3 nM
same,Neutralization (IC50),[23],1 nM
same,Neutralization (IC50),[24],16.3 nM
same,Neutralization (IC50),[25],11.1 nM
same,Neutralization (IC50),[26],1.4 nM
same,Neutralization (IC50),[27],10.8 nM
same,Neutralization (IC50),[28],21.8 nM
same,Neutralization (IC50),[29],6.1 nM
same,Neutralization (IC50),[30],32.1 nM
same,Neutralization (IC50),[31],44.2 nM
same,Neutralization (IC50),[32],4.8 nM
same,Neutralization (IC50),[33],6.8 nM
same,Neutralization (IC50),[34],12.9 nM
same,Neutralization (IC50),[35],> 1000 nM
same,Neutralization (IC50),[36],7 nM
same,Neutralization (IC50),[37],> 1000 nM
same,Neutralization (IC50),[38],> 1000 nM
same,Neutralization (IC50),[39],> 1000 nM
same,Neutralization (IC50),[40],19.2 nM
same,Neutralization (IC50),[41],46.9 nM
